Laboratory results taken from patent US20120129776A1.

Molecular target: MrgX1 (Mas-related G-protein coupled receptor member X1) (UniProt Q96LB2)
Test: cell-based or functional assay

Sequence of MrgX1 (Mas-related G-protein coupled receptor member X1) (Q96LB2 whole entry): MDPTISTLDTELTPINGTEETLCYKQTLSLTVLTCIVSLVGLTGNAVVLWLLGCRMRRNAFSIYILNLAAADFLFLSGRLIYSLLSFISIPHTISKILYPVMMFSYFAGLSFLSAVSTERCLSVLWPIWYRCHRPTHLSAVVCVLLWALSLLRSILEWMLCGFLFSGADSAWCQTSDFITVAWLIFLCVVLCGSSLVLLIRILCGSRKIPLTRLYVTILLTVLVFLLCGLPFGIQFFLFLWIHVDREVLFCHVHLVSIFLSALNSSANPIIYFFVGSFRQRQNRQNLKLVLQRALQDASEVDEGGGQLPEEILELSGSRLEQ

EC50 of calcium flux dose response: > 50 nM
Substance: BAM22 (bovine adrenal medulla peptide 22) (from UniProt P01211 206-227)
